Legend:
[1] = Adenosine deaminase (ADA) enzymatic activity assay kit; assay type: biochemical; conditions: for adenosine deaminase activity mU/mL / ΔA/min, adenosine deaminase activity: protein diluted to 5 μg/mL, serially diluted 2 fold (Table 21); for % activity vs. WT: relative to rHuADA2 WT (Table 21)
Description: Adenosine deaminase activity was determined using an adenosine deaminase (ADA) assay kit (Genway, San Diego, Calif.; Cat. No. BQ014EALD) with minor modifications. The ADA assay is based on the enzymatic deamination of adenosine to inosine, which is converted to hypoxanthine by purine nucleoside phosphorylase (PNP). Hypoxanthine is then converted to uric acid and hydrogen peroxide by xanthine oxidase (XOD). Hydrogen peroxide is further reacted with N-Ethyl-N-(2-hydroxy-3-sulfopropyl)-3-methylaniline (EHSPT) and 4-aminoantipyrine (4-AA) in the presence of peroxidase (POD) to generate quinone dye, which is monitored in a kinetic manner.
Briefly, 5 μL samples in duplicates (at appropriate dilutions to measure steady-state, non-saturating enzyme activity) were added to 120 μL R1 reagent (provided by the manufacturer; 50 mM Tris HCL, pH 8.0, 2 mM 4-AA, 0.1 U/mL PNP, 0.2 U/mL XOD, 0.6 U/mL peroxidase) in a 96 well plate, according to manufacturer's instructions. The mixtures were incubated at 37° C. for approximately 5 min and 60 μL of R2 reagent (provided by the manufacturer; 50 mM Tris HCl, pH 4.0, 10 mM Adenosine, 2 mM EHSPT) was added to the mixtures. Then, change in absorbance (AA) at 556 nm over time at 37° C. was measured. One unit of ADA is the amount of ADA that generates one μmole of inosine from adenosine per minute at 37° C. Adenosine deaminase activity in mU/mL was calculated using the following formula: 1 mU/mL=(ΔA/min×Tv)/(Sv×ϵ×1) • where Tv=total volume (185 μL), Sv=sample volume (5 μL), ϵ=32.2×10^−3 μM^−1 cm^−1, 1=0.5 cm.
Adenosine deaminase activity of WT rHuADA2 and variants tested above were determined using the adenosine deaminase activity (ADA) assay described in Example 4. Activity was assessed on purified rHuADA2 WT and variants that were diluted to 5 μg/mL, and then serially diluted 2 fold to generate 4 measurements.
Adenosine deaminase activity of PEGylated rHuADA2 and variants was assessed using the method described in Example 4, and compared to the activity of the corresponding non-PEGylated form.
Selected candidate variants described in Table 8 above, containing an amino acid substitution in a residue that play a role in enzymatic activity, were assessed for their adenosine deaminase activity using the method described in Example 4. To perform the experiments, purified WT rHuADA2 and tested variants were prepared at 5 μg/mL concentration to normalize the amount of protein in each experiment.

[2] = Heparin-affinity chromatography (heparin-Sepharose, SDS-PAGE); assay type: binding; conditions: for Heparin Column Binding: compared to WT rHuADA2, 0.3 mg/mL protein
Description: To assess binding of variants to heparin, heparin-affinity chromatography was employed to identify heparin-bound variants. Heparin binding was tested by mixing 35 μL of rHuADA2 WT and variants with 20 μL heparin-Sepharose™ resin (GE Healthcare, Pittsburgh, Pa.; Cat. No. 17-0998-01), followed by incubating at room temperature for 30 min. The mixture was then centrifuged through a 0.22 μm centrifuge filter and the flow-through, containing the unbound protein, was collected for analysis on an SDS-PAGE gel. 35 μL of 1.5 M NaCl was added to heparin-Sepharose resin and incubated at room temperature (RT) for 10 min to elute the remaining heparin-bound protein from the heparin-Sepharose. Samples of purified WT rHuADA2 and tested variants, before and after mixing with the heparin-Sepharose resin, were analyzed by SDS-PAGE to compare the degree of heparin binding.

[3] = Kinetic assessment of adenosine deaminase activity (ammonia assay, Michaelis-Menten); assay type: biochemical; conditions: for kcat: kcat=Vmax/0.0085/60
Description: Adenosine deaminase activity was determined by the measurement of ammonia released from adenosine when broken down to inosine. Ammonia was measured using a commercially available Ammonia Assay kit (Cat. No. AA0100, Sigma-Aldrich, St. Louis, Mo.). The kit contains dry reagents containing α-ketoglutaric acid and NADPH, which were reconstituted with 5 mL water prior to use in the assay. Ammonia reacts with α-ketogluaric acid (KGA) and reduced nicotinamide adenine dinucleotide phosphate (NADPH) in the presence of L-glutamate dehydrogenase (GDH).
Kinetics parameters of rHuADA2 WT and variants were compared using this assay at different adenosine concentrations at pH 7.6 and 6.5. Adenosine concentrations ranging from 20 μM to 20 mM were used. Sub-molar concentration of adenosine stock was prepared in 1N NaOH.
For the enzymatic assays at pH 7.6, adenosine was serially diluted with 100 mM sodium acetate (NaOAc), pH 4.9. A 2× reaction mixture was prepared, containing reconstituted ammonia assay reagent (containing about 4 mM α-ketoglutarate and about 300 μM NADPH), WT rHuADA2 or variants at 1 μg/mL (17 nM) and glutamate dehydrogenase (GDH, 1:50 dilution). 85 μL of adenosine was added to 85 μL 2× mixture in duplicate in a UV-transparent half-area plate. The change in absorbance (ΔA) at 340 nm over time at room temperature was monitored.
For the enzymatic assay at pH 6.5, adenosine was serially diluted with 200 mM piperazine-N,N′-bis(2-ethanesulfonic acid) (PIPES), pH 6.5. A 2× reaction mixture in 200 mM PIPES, pH 6.5 was prepared, containing 4 mM α-ketoglutarate, 300 μM NADPH, 1 μg/mL (17 nM) rHuADA2 or variants and 50 U/mL GDH (Cat No. G2626, Sigma-Aldrich). The enzymatic reaction was initiated by adding equal volume of adenosine to the 2× mixture in a UV-transparent half-area plate as described above, and the change in absorbance (AA) at 340 nm over time at room temperature was monitored.
Adenosine deaminase activity in mU/mL (μM/min equivalent) was calculated using the following formula: 1 mU/mL=−(−ΔA/min×Tv)/(Sv×ϵ×1) • where Tv=total volume (170 μL), Sv=sample volume (85 μL), ϵ=6.22×10^−3 μM^−1 cm^−1, 1=1 cm.
The activity data were fitted with non-linear regression of Michaelis-Menten equation using Graphpad Prism software to obtain Km and Vmax. Other kinetics parameters such as kcat and kcat/Km were also determined.

Row | Molecule | % activity vs. WT [1] | heparin binding compared to WT [2] | Heparin Column Binding [2] | % of WT activity ([1]; purified protein at 5 μg/mL, compared to WT-ADA2) | enzymatic activity relative to WT rHuADA2 [1] | adenosine deaminase activity mU/mL [1] | ΔA/min, adenosine deaminase activity [1] | Km ([3]; pH 6.5) | Km ([3]; pH 6.5, [E] = 8.5 nM) | Vmax ([3]; pH 6.5, [E] = 8.5 nM) | kcat ([3]; pH 6.5, [E] = 8.5 nM) | Km ([3]; pH 7.6) | Km ([3]; pH 7.6, [E] = 8.5 nM) | Vmax ([3]; pH 7.6, [E] = 8.5 nM) | kcat ([3]; pH 7.6, [E] = 8.5 nM) | Adenosine deaminase activity mU/ml ([1]; purified protein at 5 μg/mL) | Adenosine deaminase activity ΔA/min ([1]; purified protein at 5 μg/mL)
1 | R369A: ADA2 variant SEQ ID NO:31 (protein, human ADA2 R366A, mature numbering) IDETRAHLLLKEKMMRLGGRLVLNTKEELANERLMTLKIAEMKEAMRTLIFPPSMHFFQAKHLIERSQVFNILRMMPKGAALHLHDIGIVTMDWLVRNVTYRPHCHICFTPRGIMQFRFAHPTPRPSEKCSKWILLEDYRKRVQNVTEFDDSLLRNFTLVTQHPEVIYTNQNVVWSKFETIFFTISGLIHYAPVFRDYVFRSMQEFYEDNVLYMEIRARLLPVYELSGEHHDEEWSVKTYQEVAQKFVETHPEFIGIKIIYSDHRSKDVAVIAESIRMAMGLRIKFPTVVAGFDLVGHEDTGHSLHDYKEALMIPAKDGVKLPYFFHAGETDWQGTSIDRNILDALMLNTTRIGHGFALSKHPAVATYSWKKDIPIEVCPISNQVLKLVSDLRNHPVATLMATGHPMVISSDDPAMFGAKGLSYDFYEVFMGIGGMKADLRTLKQLAMNSIKYSTLLESEKNTFMEIWKKRWDKFIADVATK | 44% | reduced heparin binding | Reduced | – | reduced adenosine deaminase activity | 34.3 mU/mL | 14.9 | – | – | – | – | – | – | – | – | – | –
2 | R23D: ADA2 variant SEQ ID NO:29 (protein, human ADA2 R20D, mature numbering) IDETRAHLLLKEKMMRLGGDLVLNTKEELANERLMTLKIAEMKEAMRTLIFPPSMHFFQAKHLIERSQVFNILRMMPKGAALHLHDIGIVTMDWLVRNVTYRPHCHICFTPRGIMQFRFAHPTPRPSEKCSKWILLEDYRKRVQNVTEFDDSLLRNFTLVTQHPEVIYTNQNVVWSKFETIFFTISGLIHYAPVFRDYVFRSMQEFYEDNVLYMEIRARLLPVYELSGEHHDEEWSVKTYQEVAQKFVETHPEFIGIKIIYSDHRSKDVAVIAESIRMAMGLRIKFPTVVAGFDLVGHEDTGHSLHDYKEALMIPAKDGVKLPYFFHAGETDWQGTSIDRNILDALMLNTTRIGHGFALSKHPAVRTYSWKKDIPIEVCPISNQVLKLVSDLRNHPVATLMATGHPMVISSDDPAMFGAKGLSYDFYEVFMGIGGMKADLRTLKQLAMNSIKYSTLLESEKNTFMEIWKKRWDKFIADVATK | 20.3% | reduced heparin binding | Reduced | – | reduced adenosine deaminase activity | 15.9 mU/mL | 6.9 | – | – | – | – | – | – | – | – | – | –

Now from value to molecule, other results behind:

Row | % activity vs. WT [1] | heparin binding compared to WT [2] | Heparin Column Binding [2] | % of WT activity ([1]; purified protein at 5 μg/mL, compared to WT-ADA2) | Molecule | enzymatic activity relative to WT rHuADA2 [1] | adenosine deaminase activity mU/mL [1] | ΔA/min, adenosine deaminase activity [1] | Km ([3]; pH 6.5) | Km ([3]; pH 6.5, [E] = 8.5 nM) | Vmax ([3]; pH 6.5, [E] = 8.5 nM) | kcat ([3]; pH 6.5, [E] = 8.5 nM) | Km ([3]; pH 7.6) | Km ([3]; pH 7.6, [E] = 8.5 nM) | Vmax ([3]; pH 7.6, [E] = 8.5 nM) | kcat ([3]; pH 7.6, [E] = 8.5 nM) | Adenosine deaminase activity mU/ml ([1]; purified protein at 5 μg/mL) | Adenosine deaminase activity ΔA/min ([1]; purified protein at 5 μg/mL)
3 | 68.4% | reduced heparin binding | Reduced | – | R23A: ADA2 variant SEQ ID NO:28 (protein, human ADA2 R20A, mature numbering) IDETRAHLLLKEKMMRLGGALVLNTKEELANERLMTLKIAEMKEAMRTLIFPPSMHFFQAKHLIERSQVFNILRMMPKGAALHLHDIGIVTMDWLVRNVTYRPHCHICFTPRGIMQFRFAHPTPRPSEKCSKWILLEDYRKRVQNVTEFDDSLLRNFTLVTQHPEVIYTNQNVVWSKFETIFFTISGLIHYAPVFRDYVFRSMQEFYEDNVLYMEIRARLLPVYELSGEHHDEEWSVKTYQEVAQKFVETHPEFIGIKIIYSDHRSKDVAVIAESIRMAMGLRIKFPTVVAGFDLVGHEDTGHSLHDYKEALMIPAKDGVKLPYFFHAGETDWQGTSIDRNILDALMLNTTRIGHGFALSKHPAVRTYSWKKDIPIEVCPISNQVLKLVSDLRNHPVATLMATGHPMVISSDDPAMFGAKGLSYDFYEVFMGIGGMKADLRTLKQLAMNSIKYSTLLESEKNTFMEIWKKRWDKFIADVATK | reduced adenosine deaminase activity | 53.3 mU/mL | 23.2 | – | – | – | – | – | – | – | – | – | –
4 | – | – | – | 170% | R222Q: ADA2 variant SEQ ID NO:39 (protein, human ADA2 R219Q, mature numbering) IDETRAHLLLKEKMMRLGGRLVLNTKEELANERLMTLKIAEMKEAMRTLIFPPSMHFFQAKHLIERSQVFNILRMMPKGAALHLHDIGIVTMDWLVRNVTYRPHCHICFTPRGIMQFRFAHPTPRPSEKCSKWILLEDYRKRVQNVTEFDDSLLRNFTLVTQHPEVIYTNQNVVWSKFETIFFTISGLIHYAPVFRDYVFRSMQEFYEDNVLYMEIRAQLLPVYELSGEHHDEEWSVKTYQEVAQKFVETHPEFIGIKIIYSDHRSKDVAVIAESIRMAMGLRIKFPTVVAGFDLVGHEDTGHSLHDYKEALMIPAKDGVKLPYFFHAGETDWQGTSIDRNILDALMLNTTRIGHGFALSKHPAVRTYSWKKDIPIEVCPISNQVLKLVSDLRNHPVATLMATGHPMVISSDDPAMFGAKGLSYDFYEVFMGIGGMKADLRTLKQLAMNSIKYSTLLESEKNTFMEIWKKRWDKFIADVATK | – | – | – | 994 µM | 994 µM | 42.15 µM/min | 82.65 s⁻¹ | 1920 µM | 1920 µM | 59.28 µM/min | 116.24 s⁻¹ | 132.9 mU/ml | 57.8 ΔA/min

— patent US9969998B2, “Compositions of adenosine deaminase-2 (ADA2), variants thereof and methods of using same” (Halozyme, Inc., priority 2014, dated 2018)
